Substitutions are numbered along the chain they refer to.
T1: human PACAP38 (human, not fully specified; C-terminal lysine is amidated; N-terminal or C-terminal biotin in the HTRF and PC-12 cell binding assays)
T1 construct: synthetic peptide, bought; also called huPACAP (1-38)
T1 peptide: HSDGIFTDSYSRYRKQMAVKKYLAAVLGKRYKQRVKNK

T2: human PACAP27 (human, C-terminal leucine is amidated; 125I-labelled in Example 10)
T2 peptide: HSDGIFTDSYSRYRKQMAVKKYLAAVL

T3: human VIP (human)
T3 construct: also called Vasoactive Intestinal Peptide
T3 peptide: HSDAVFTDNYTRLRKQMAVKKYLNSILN

B1: anti-PACAP antibody Ab3 (antibody, human IgG1, kappa, N297A, V domains shown)
VH: QEQLVESGGGLVQPEGSLTLTCTASGFSFSSSDYMCWVRQAPGKGLEWIGCIDAGSSGDTYFASWAKGRFTISKTSSTTVTLQMTSLTAADTATYFCARHLYGSITFAFGLWGQGTLVTVSS
VL: AAVLTQTPSPVSAAVGGTVTINCQASQSIGSDLAWYQQKPGQPPKLLIYDASTLASGVPSRFSGSGSGTQFTLTISGVQCDDAATYYCQGTYYSSGWYTAFGGGTEVVVKR
notes: full-length rabbit/human chimeric antibody
B2: anti-PACAP antibody Ab10.H (antibody, V domains shown)
VH: EVQLVESGGGLVQPGGSLRLSCAASGIDLNSYYMTWVRQAPGKGLEWIGFIDAGGDAYYASWAKGRFTISRDNSKNTVYLQMNSLRAEDTAVYFCARDLDLWGQGTLVTVSS
VL: DAQLTQSPSTLSASVGDRVTITCQSSESVYGNYLAWFQQKPGKAPKFLIYEASKLESGVPSRFSGSGSGTEFTLTISSLQPDDFATYYCAGGDISEGVAFGGGTKVEIKR
B3: anti-PACAP antibody Ab13 (antibody, human IgG1, kappa, N297A, V domains shown)
VH: QSVEESGGRLVTPGTPLTLTCTVSGFSLSSAAMNWVRQAPGKGLEWIGIIDNTAGTYYAPWAKGRFTISKTSSTTVDLKMTSPTTEDTATYFCARGGGEFFIWGPGTLVTVSS
VL: AQVLTQTPSSVSAAVGGTVTINCQSSQSVHDGSYLSWYQQKPGQPPNFLIYQASNLASGVPSRFKGSGSGTQFTLTISDLECDDAATYYCAGGYSSNICGFGGGTEVVVKR
notes: as for B1
B4: anti-PACAP antibody Ab14 (antibody, human IgG1, kappa, N297A, V domains shown)
VH: QSVEASGGRLVTPGTPLTLTCTVSGFSLSSAAMNWVRQAPGKGLEWIGFIEYSKNIVYASWAKGRFTISKVSSTTVDLKMTSPTTEDTATYFCARGGGEFFIWGQGTLVTVSS
VL: AQVLTQTPSSVSAAVGGTVTINCQSSQSVYSNNRLSYYQQKPGQPPKLLIYEASSLAYGVPSRFKGSGSGTQFTLTISDLECDDAATYYCAGAYSNSIYSFGGGTEVVVKR
notes: as for B1
B5: anti-PACAP antibody Ab11 (antibody, human IgG1, kappa, N297A, V domains shown)
VH: QSVEESGGRLVTPGTPLTLTCTASGFSLSRYAMGWVRQAPGKGLEWIGDISTYGTTDYASWVNGRFTISRTSTTVTLKMTSLTTEDTATYFCARDYWLSLWGQGTLVTVSS
VL: AAVLTQTPSPVSAAVGGTVTIKCQSSQSVYDNNALAWYQQKPGQPPKLLIYAASNLASGVPDRFSGSGSGTQFTLTISGVQCDDAATYYCLGGYDDAADNAFGGGTEVVVKR
notes: as for B1
B6: anti-PACAP antibody Ab7 (antibody, human IgG1, kappa, N297A, V domains shown)
VH: B5 VH with F26I, S27D, R30G, Q103P
VL: B5 VL with N55T, D62S, S65K, S78N, A97P
notes: as for B1
B7: anti-PACAP antibody Ab12 (antibody, human IgG1, kappa, N297A, V domains shown)
VH: B5 VH with R30S, N63Y
VL: B5 VL with N55T, D62S, Q72E, D95Y, A97P
notes: as for B1
B8: anti-PACAP antibody Ab10 (antibody, V domains shown)
VH: QSVEESGGRLVTPGTPLTLTCTVSGIDLNSYYMTWVRQAPGKGLEWIGFIDAGGDAYYASWAKGRFTISKTSTTVDLKITSPTTEDTATYFCARDLDLWGQGTLVTVSS
VL: AAVLTQTPSPVSAAVGGTVTINCQSSESVYGNYLAWFQQKPGQPPKLLIYEASKLESGVPSRFSGSGSGTQFTLTISDLQCDDAATYYCAGGDISEGVAFGGGTEVVVKR

Molecular target: T1, human PACAP38
Assay: SPR, Ab immobilised
Method: (§1) Binding affinities of monoclonal antibodies for human PACAP were estimated using SPR on the PROTEON™ XPR36 (Bio-Rad, Hercules, Calif.). Antibody was immobilized to the surface of general amine coupling (“GLC” or “GLM”) Chips (Bio-Rad, Hercules, Calif.). A dilution series of human PACAP38 (SEQ ID NO: 1241) prepared in 1×PBST Buffer (4.3 mM Na Phosphate, 1.4 mM K Phosphate, 135 mM NaCl, 2.7 mM KCl 0.05% Polysorbate-20) purchased from Teknova (Cat# P1192, Teknova, Hollister, Calif.) and supplemented with 0.25 M arginine (from J.T. BAKER®), 0.2 mg/ml BSA (Jackson Immuno Research Labs, West Grove, Pa.), and 0.005% sodium azide (VWR International, Radnor, Pa.) with the pH adjusted to 7 was used to query the antibodies. Antigen (ranging from 1.23 nM to 100 nM) was typically run sequentially with association times of 2-4 minutes and dissociation times of 3-120 minutes grouped with the PROTEON™ Manager Software (v3.1.0.6 (Bio-Rad, Hercules, Calif.)) and fitted using a 1:1 Langmuir binding model. Surfaces were regenerated between analyte queries using 0.85% Phosphoric Acid.

Row | Kd | koff | kon | Binder
1 | 160 pM | 4.2e-05 s⁻¹ | 260000 M⁻¹ s⁻¹ | B1
2 | 29 pM | 1e-05 s⁻¹ | – | B2
3 | 64 pM | 2.7e-05 s⁻¹ | 420000 M⁻¹ s⁻¹ | B3
4 | ≤ 31 pM | ≤ 1e-05 s⁻¹ | 320000 M⁻¹ s⁻¹ | B4
5 | 110 pM | 3.1e-05 s⁻¹ | 270000 M⁻¹ s⁻¹ | B5
6 | ≤ 56 pM | ≤ 1e-05 s⁻¹ | 180000 M⁻¹ s⁻¹ | B6
7 | ≤ 32 pM | ≤ 1e-05 s⁻¹ | 310000 M⁻¹ s⁻¹ | B7

Molecular target: T2, human PACAP27
Assay: SPR, Ab immobilised
Method: [The procedure below names another target; the source says it served here with some conditions changed.] as §1

Row | Kd | koff | kon | Binder
8 | 370 pM | 0.00014 s⁻¹ | 370000 M⁻¹ s⁻¹ | B1
9 | 120 pM | 6.6e-05 s⁻¹ | 540000 M⁻¹ s⁻¹ | B3
10 | 74 pM | 2e-05 s⁻¹ | 270000 M⁻¹ s⁻¹ | B4
11 | 420 pM | 0.00011 s⁻¹ | 260000 M⁻¹ s⁻¹ | B5
12 | 200 pM | 4.5e-05 s⁻¹ | 230000 M⁻¹ s⁻¹ | B6
13 | 70 pM | 2.1e-05 s⁻¹ | 290000 M⁻¹ s⁻¹ | B7
14 | 10 pM | 1e-05 s⁻¹ | – | B8

Molecular target: T3, human VIP
Assay: SPR, Ab immobilised
Method: [The procedure below names another target; the source says it served here with some conditions changed.] as §1

Row | Kd | koff | kon | Binder
15 | 100000 µM | 0.1 s⁻¹ | – | B1
16 | 0.14 µM | 0.046 s⁻¹ | 320000 M⁻¹ s⁻¹ | B3
17 | 0.25 µM | 0.067 s⁻¹ | 270000 M⁻¹ s⁻¹ | B4
18 | 0.23 µM | 0.047 s⁻¹ | 200000 M⁻¹ s⁻¹ | B5
19 | 0.034 µM | 0.0088 s⁻¹ | 260000 M⁻¹ s⁻¹ | B6
20 | 0.0082 µM | 0.0024 s⁻¹ | 290000 M⁻¹ s⁻¹ | B7

Molecular target: T1, human PACAP38
Assay: cell-based or functional assay

Row | IC50, 0.1 nM PACAP38-induced PAC1-R mediated cAMP increase | Binder
21 | 227 pM | B1
22 | 82.4 pM | B3
23 | 154 pM | B4
24 | 56.7 pM | B5
25 | 111 pM | B6
26 | 51.1 pM | B7

Molecular target: T2, human PACAP27
Assay: cell-based or functional assay

Row | IC50, 0.1 nM PACAP27-induced PAC1-R mediated cAMP increase | Binder
27 | 90 pM | B1
28 | 74.1 pM | B3
29 | 95.7 pM | B4
30 | 109 pM | B5
31 | 45.8 pM | B6
32 | 60.4 pM | B7

Molecular target: T1, human PACAP38
Assay: cell-based or functional assay
Remark: another data set of the same source

Row | IC50, 5 nM PACAP38-induced human VPAC1-R mediated cAMP increase | Binder
33 | 0.00174 µM | B1
34 | 0.00218 µM | B3
35 | 0.00263 µM | B4
36 | 0.000541 µM | B5
37 | 0.000687 µM | B6
38 | 0.000292 µM | B7

Molecular target: T1, human PACAP38
Assay: cell-based or functional assay
Remark: another data set of the same source

Row | IC50, 1 nM PACAP38-induced human VPAC2-R mediated cAMP increase | Binder
39 | 0.000667 µM | B1
40 | 0.000652 µM | B3
41 | 0.00084 µM | B4
42 | 0.000265 µM | B5
43 | 0.000162 µM | B6
44 | 0.000179 µM | B7

Molecular target: T1, human PACAP38
Assay: HTRF binding, biotin-PACAP38
Method: In parallel, 10 μl of an antibody dilution series (highest final concentration of 100 nM) were incubated with 10 μl of N-terminal or C-terminal biotinylated PACAP38 (35 nM final) alone, or in combination with either PACAP27 (350 nM final) or VIP (350 nM final), i.e., 10× PACAP27 or 10×VIP, respectively, in a HTRF plate. 20 μl of Eu³⁺ cryptate labeled anti-hu Fc donor and 20 μl of d2-labeled streptavidin acceptor were added to each well and incubated for 1 hour at room temperature. Fluorescence was measured at 620 and 665 nm with a delay of 300 μsec.
EC₅₀ values, i.e. the concentration of an antibody that yields a response halfway between the baseline and the maximum value within a specified time period, were computed for each antibody based upon their binding curves and are shown in Table 1 below. […] A humanized form of antibody Ab1 was produced and is identified by an appended “.H”, i.e., Ab1.H, and it also bound PACAP38 with high affinity.

Row | EC50 | Binder
45 | 0.00045 µM | B1
46 | 0.00048 µM | B3
47 | 0.00057 µM | B4
48 | 0.00053 µM | B5
49 | 0.00045 µM | B6
50 | 0.00051 µM | B7

Molecular target: T1, human PACAP38
Assay: inhibition of 100 nM biotin-PACAP38 binding to PC-12 cells, TRF
Method: To identify antibodies that block PACAP38 binding to PAC1-R-expressing cells, adherent PC-12 cells (ATCC, Manassas, Va.) expressing PAC1-R were used in a Europium-based PAC1-R expressing cells binding assay.
Antibody solutions were incubated with N-terminal biotinylated PACAP38 at 10× the final concentration (100 nM or 30 nM) for 1 hr, then added to PC-12 cells that were plated 24 hrs. prior in black clear bottom 96 well plates (COSTAR™, Corning Incorporated, Corning, N.Y.) and further incubated for 1 hr at room temperature. After three washes, the cells were incubated with 20 μl Europium-labeled streptavidin (PerkinElmer, Waltham, Mass.) for 1 hr at room temperature. Cells were washed three times, then 20 μl DELFIA® Enhancement solution (PerkinElmer, Waltham, Mass.) was added to each well and incubated for 15 minutes with gentle shaking. Plates were read (Time Resolved Fluorescence (“TRF”)) on SPECTRAMAX® (Molecular Devices, Sunnyvale, Calif.) plate reader.
FIGS. 14A-14BB are representative of the inhibition curves obtained by this method (results are shown for Ab1, Ab2, Ab3, Ab4, Ab5, Ab6, Ab7, Ab8, Ab9, Ab10, Ab11, Ab12, Ab13, Ab14, Ab15, Ab16, Ab17, Ab18, Ab19, Ab1.H, Ab10.H, Ab22, Ab23, Ab3.H, Ab4.H, Ab5.H, Ab9.H, and Ab12.H, respectively) wherein the PAC1-R expressing cells were PC-12 cells.

Row | IC50 | Binder
51 | 0.0172 µM | B1
52 | 0.0531 µM | B3
53 | 0.0179 µM | B4
54 | 0.0246 µM | B5
55 | 0.022 µM | B6
56 | 0.0226 µM | B7

Source: patent US20190233498A1 (H LUNDBECK A S, published 2019)
